In assay [1] the target is A1-Titin (HLA-A*0101 with the Titin peptide ), biotinylated. The assay can be described thus: SPR.
For assay [2], the target named is A1-MAGE-A3 (HLA-A*0101 with the MAGE-A3 peptide ), biotinylated. In words: SPR.
Assay [3] concerns the target A1-Titin (HLA-A*0101 with the Titin peptide …), biotinylated. In words: SPR (single cycle kinetics). Conditions: 25 °C; approximately 150 RUs of biotinylated pMHC immobilised onto a CM5 amine chip.
For assay [4], the target named is A1-MAGE-A3 (HLA-A*0101 with the MAGE-A3 peptide …), biotinylated. In words: SPR (single cycle kinetics). Conditions: 25 °C; approximately 150 RUs of biotinylated pMHC immobilised onto a CM5 amine chip.

For the substance MAG-IC3 TCR mutant R31W (β chain), the figures for the Kd in assay [1] and in assay [2] were 100 nM and 6.2 nM, respectively.

For MAG-IC3 TCR N97D, in assay [3], the Kd came out at 916 nM.

For MAG-IC3 TCR mutant N97Q (β chain), the Kd in assay [1] came to 601 nM.

In the case of MAG-IC3 TCR N97E, the other: t1/2 in assay [4] is 14 min. Further, in assay [3], the Kd was found to be 743 nM.

As to MAG-IC3 TCR F51T, in assay [4], the Kd was 3.2 nM and the other: t1/2 was 66 min.

As to MAG-IC3 TCR mutant N97E (β chain), the Kd in assay [2] was 35 nM. This lies in the double-digit nanomolar range.

Take MAG-IC3 TCR F51W: the other: t1/2 in assay [4] stood at 20 min. For the same substance, in assay [3], the Kd was 172 nM and the other: t1/2 was found to be 1.5 min.

MAG-IC3 TCR mutant F51W (β chain) yielded a Kd in assay [2] of 8.4 nM.

Regarding MAG-IC3 TCR N97Q, in assay [4], the Kd came to 59 nM. That is a double-digit nanomolar value.

Turning to MAG-IC3 TCR mutant N97D (β chain), the Kd in assay [2] was 99.3 nM. This counts as double-digit nanomolar.

On to MAG-IC3 TCR mutant F51T (β chain), for which the Kd in assay [1] amounted to 97.6 nM.

On to MAG-IC3 TCR R31L, for which the Kd in assay [4] is 13.4 nM; in assay [3], 93 nM.

In general, Kd refers to a measure of binding affinity in units of concentration. A higher Kd goes with lower affinity.

These data come from paper PMC4725365.
